The experiment deals with Native eIF4E of High Five (Trichoplusia ni) insect cells (Trichoplusia ni). Nature of the experiment: cell-based or functional assay.

B1: his-tagged PVY VPg protein (protein, not shown: small tags and cut ends)
chain: GKNKSKRIQALKFRHARDKRAGFEIDNNDDTIEEFFGSAYRKKGKGKGTTVGMGKSSRRFINMYGFDPTEYSFIQFVDPLTGAQIEENVYADIRDIQERFSEVRKKMVENDDIEMQALGSNTTIHAYFRKDWSDKALKIDLMPHNPLKVCDKTNGIAKFPERELELRQTGPAVEVDVKDIPAQEVEHE
With B1, the eIF4E in cytoplasm (%), 12 h p.i., cell fractionation, Western blot and densitometry was 53.5%; the eIF4E in cytoplasm (%), 24 h p.i., cell fractionation, Western blot and densitometry was 81.3%; the eIF4E in cytoplasm (%), 36 h p.i., cell fractionation, Western blot and densitometry came out at 83.3%; the eIF4E in cytoplasm (%), 48 h p.i., cell fractionation, Western blot and densitometry amounted to 74.1%. In addition, the eIF4E in nucleus (%), 12 h p.i., cell fractionation, Western blot and densitometry turned out to be 46.5%; the eIF4E in nucleus (%), 24 h p.i., cell fractionation, Western blot and densitometry came to 18.7%; the eIF4E in nucleus (%), 36 h p.i., cell fractionation, Western blot and densitometry was found to be 16.7%; the eIF4E in nucleus (%), 48 h p.i., cell fractionation, Western blot and densitometry amounted to 25.9%.

The record behind these values is patent US20100160234A1.
